Results on 38 sequences are retold here after the supplement of paper PMC7877785.

This data set can be described thus: self-splicing fitness, log relative to wild type (ln ratio); higher = more splicing; Tetrahymena group I intron in knt gene, E. coli kanamycin selection, DiMSum; sequences stand for … in CUCUCU…GGAGGGAAAAGUUAUCAGGCAUGCACCUGGUAGCUAGUCUUUAAACCAAUAGAUUGCAUCGGUUUAAAAGGCAAGACCGUCAAAUUGCGGGAAAGGGGUCAACAGCCGUUCAGUACCAAGUCUCAGGGGAAACUUUGAGAUGGCCUUGCAAAGGGUAUGGUAAUAAGCUGACGGACAUGGUCCUAACCACGCAGCCAAGUCCUAAGUCAACAGAUCUUCUGUUGAUAUGGAUGCAGUUCACAGACUAAAUGUCGGUCGGGGAAGAUGUAUUCUUCUCAUAAGAUAUAGUCGGACCUCUCCUUAAUGGGAGCUAGCGGAUGAAGUGAUGCAACACUGGAGCCGCUGGGAACUAAUUUGUAUGCGAAAGUAUAUUGAUUAGUUUUGGAGUACUCGUGGUCG
In outline: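 Colonies from six replicate transformations of E. coli BL21(DE3) were pooled and amplicon-sequenced on an Illumina HiSeq 2500. The library placed an intron with all eight P1ex-region nucleotides randomised inside the knt kanamycin-resistance gene on pET-22b(+), and cells grew overnight at 37°C or 30°C on LB agar with or without 25 μg/mL kanamycin (plus 100 μg/mL carbenicillin, 50 μM IPTG, 0.2% rhamnose). Fitness is the DiMSum error-weighted combination of wild-type-normalised replicate fold changes, kanamycin versus none.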

± gives the uncertainty stated by the source.

As to GUGUAGCAAUAUUACGUGGU, the “self-splicing fitness (ln)” value is -3.96 ± 0.27 (30 °C) and -1.17 ± 0.22 (37 °C). Taken in the same sequence, the figures for GUGUAGCAAUAUUACGUGUG were -3.21 ± 0.18 and -1.69 ± 0.15. On to GUGUAGCAAUAUUACGUUAA, for which the “self-splicing fitness (ln)” value is -2.21 ± 0.2 (30 °C) and -1.8 ± 0.16 (37 °C). Taken in the same sequence, the figures for GUGUAGCAAUAUUACGUUGG were -4.05 ± 0.42 and -2.06 ± 0.21.

With GUUAAGCAAUAUUACGAAGC, the “self-splicing fitness (ln)” value by setting is: (30 °C) -2.32 ± 0.41; (37 °C) -1.82 ± 0.3. The corresponding values for GUUAAGCAAUAUUACGAAUA are -1.19 ± 0.25 and -0.46 ± 0.32. The corresponding values for GUUAAGCAAUAUUACGACGA are -1.13 ± 0.11 and -1.14 ± 0.12. For the sequence GUUAAGCAAUAUUACGCAAU, the “self-splicing fitness (ln)” value (30 °C) was -3.09 ± 0.44. Turning to GUUAAGCAAUAUUACGCCAC, the “self-splicing fitness (ln)” value was -3.63 ± 0.4 (30 °C) and -3.27 ± 0.47 (37 °C).

As to GUUAAGCAAUAUUACGCUGC, the “self-splicing fitness (ln)” value by setting is: (30 °C) -3.43 ± 0.33; (37 °C) -1.49 ± 0.32. Taken in the same sequence, the figures for GUUAAGCAAUAUUACGGAUC were -0.695 ± 0.09 and 0.135 ± 0.12.

Regarding GUUAAGCAAUAUUACGGCCA, the “self-splicing fitness (ln)” value was -0.63 ± 0.17 (30 °C) and -0.359 ± 0.23 (37 °C). Take GUUAAGCAAUAUUACGGCCG: the “self-splicing fitness (ln)” value is, setting by setting: (30 °C) -1.61 ± 0.2; (37 °C) -0.597 ± 0.37. In the case of GUUAAGCAAUAUUACGGCGC, the “self-splicing fitness (ln)” value by setting is: (30 °C) 0.441 ± 0.15; (37 °C) -0.509 ± 0.14. For GUUAAGCAAUAUUACGGGCC, the “self-splicing fitness (ln)” value (37 °C) was -2.12 ± 0.37. GUUAAGCAAUAUUACGGUCG: the “self-splicing fitness (ln)” value is, setting by setting: (30 °C) -1.32 ± 0.066; (37 °C) -0.767 ± 0.094. In the case of GUUAAGCAAUAUUACGGUGG, the “self-splicing fitness (ln)” value runs as follows: (30 °C) -3.52 ± 0.17; (37 °C) -1.78 ± 0.15. Consider GUUAAGCAAUAUUACGUCAA, for which the “self-splicing fitness (ln)” value was -1.38 ± 0.11 (30 °C) and -1.33 ± 0.13 (37 °C). The corresponding values for GUUAAGCAAUAUUACGUCGG are -2.75 ± 0.2 and -2.55 ± 0.25.

GUUAAGCAAUAUUACGUCUC: the “self-splicing fitness (ln)” value runs as follows: (30 °C) -0.932 ± 0.1; (37 °C) -0.514 ± 0.12. With GUUAAGCAAUAUUACGUCUG, the “self-splicing fitness (ln)” value runs as follows: (30 °C) -1.38 ± 0.098; (37 °C) -1.3 ± 0.13. Taken in the same sequence, the figures for GUUAAGCAAUAUUACGUGCU were -1.6 ± 0.087 and -0.714 ± 0.11. The corresponding values for GUUAAGCAAUAUUACGUUUG are -2.55 ± 0.12 and -1.86 ± 0.17. For the sequence GUUCAGCAAUAUUACGACUC, the “self-splicing fitness (ln)” value (30 °C) amounted to 0.0553 ± 0.47. Turning to GUUCAGCAAUAUUACGAGGG, the “self-splicing fitness (ln)” value (30 °C) is -2.72 ± 0.19 and the “self-splicing fitness (ln)” value (37 °C) was -0.563 ± 0.16.

GUUCAGCAAUAUUACGAGUU: the “self-splicing fitness (ln)” value runs as follows: (30 °C) -1.43 ± 0.088; (37 °C) -0.77 ± 0.086.

For GUUCAGCAAUAUUACGCCCA, the “self-splicing fitness (ln)” value is, setting by setting: (30 °C) -0.553 ± 0.1; (37 °C) -1.26 ± 0.1. For the sequence GUUCAGCAAUAUUACGCCUC, the “self-splicing fitness (ln)” value is, setting by setting: (30 °C) -0.427 ± 0.14; (37 °C) 0.0352 ± 0.16. With GUUCAGCAAUAUUACGCGUA, the “self-splicing fitness (ln)” value reads like this: (30 °C) -0.404 ± 0.12; (37 °C) -0.287 ± 0.15. Consider GUUCAGCAAUAUUACGGAAA, for which the “self-splicing fitness (ln)” value by setting is: (30 °C) -0.778 ± 0.13; (37 °C) 0.58 ± 0.19. Take GUUCAGCAAUAUUACGGAUA: the “self-splicing fitness (ln)” value by setting is: (30 °C) -0.566 ± 0.13; (37 °C) -0.413 ± 0.1.

With GUUCAGCAAUAUUACGGCGU, the “self-splicing fitness (ln)” value runs as follows: (30 °C) -0.298 ± 0.085; (37 °C) 0.138 ± 0.11. Taken in the same sequence, the figures for GUUCAGCAAUAUUACGUCAA were -1.86 ± 0.14 and -0.976 ± 0.14. As to GUUCAGCAAUAUUACGUCAC, the “self-splicing fitness (ln)” value runs as follows: (30 °C) -1.78 ± 0.17; (37 °C) -1.27 ± 0.17.

With GUUCAGCAAUAUUACGUCGC, the “self-splicing fitness (ln)” value is -0.991 ± 0.1 (30 °C) and -0.347 ± 0.12 (37 °C). The corresponding values for GUUCAGCAAUAUUACGUCUG are -2.67 ± 0.085 and -1.54 ± 0.072. Regarding GUUCAGCAAUAUUACGUGCA, the “self-splicing fitness (ln)” value reads like this: (30 °C) -0.645 ± 0.11; (37 °C) -0.382 ± 0.11. Consider GUUCAGCAAUAUUACGUUUA, for which the “self-splicing fitness (ln)” value by setting is: (30 °C) -1.21 ± 0.11; (37 °C) -0.233 ± 0.09.
